The numbers were not newly measured in PMC5466818, which cites them from elsewhere.

The term Kd denotes the concentration at which binding is half-saturated.

The target in this series is formin Bnr1 (Saccharomyces cerevisiae) (UniProt P40450).
UniProt P40450, sequence (P40450 whole entry): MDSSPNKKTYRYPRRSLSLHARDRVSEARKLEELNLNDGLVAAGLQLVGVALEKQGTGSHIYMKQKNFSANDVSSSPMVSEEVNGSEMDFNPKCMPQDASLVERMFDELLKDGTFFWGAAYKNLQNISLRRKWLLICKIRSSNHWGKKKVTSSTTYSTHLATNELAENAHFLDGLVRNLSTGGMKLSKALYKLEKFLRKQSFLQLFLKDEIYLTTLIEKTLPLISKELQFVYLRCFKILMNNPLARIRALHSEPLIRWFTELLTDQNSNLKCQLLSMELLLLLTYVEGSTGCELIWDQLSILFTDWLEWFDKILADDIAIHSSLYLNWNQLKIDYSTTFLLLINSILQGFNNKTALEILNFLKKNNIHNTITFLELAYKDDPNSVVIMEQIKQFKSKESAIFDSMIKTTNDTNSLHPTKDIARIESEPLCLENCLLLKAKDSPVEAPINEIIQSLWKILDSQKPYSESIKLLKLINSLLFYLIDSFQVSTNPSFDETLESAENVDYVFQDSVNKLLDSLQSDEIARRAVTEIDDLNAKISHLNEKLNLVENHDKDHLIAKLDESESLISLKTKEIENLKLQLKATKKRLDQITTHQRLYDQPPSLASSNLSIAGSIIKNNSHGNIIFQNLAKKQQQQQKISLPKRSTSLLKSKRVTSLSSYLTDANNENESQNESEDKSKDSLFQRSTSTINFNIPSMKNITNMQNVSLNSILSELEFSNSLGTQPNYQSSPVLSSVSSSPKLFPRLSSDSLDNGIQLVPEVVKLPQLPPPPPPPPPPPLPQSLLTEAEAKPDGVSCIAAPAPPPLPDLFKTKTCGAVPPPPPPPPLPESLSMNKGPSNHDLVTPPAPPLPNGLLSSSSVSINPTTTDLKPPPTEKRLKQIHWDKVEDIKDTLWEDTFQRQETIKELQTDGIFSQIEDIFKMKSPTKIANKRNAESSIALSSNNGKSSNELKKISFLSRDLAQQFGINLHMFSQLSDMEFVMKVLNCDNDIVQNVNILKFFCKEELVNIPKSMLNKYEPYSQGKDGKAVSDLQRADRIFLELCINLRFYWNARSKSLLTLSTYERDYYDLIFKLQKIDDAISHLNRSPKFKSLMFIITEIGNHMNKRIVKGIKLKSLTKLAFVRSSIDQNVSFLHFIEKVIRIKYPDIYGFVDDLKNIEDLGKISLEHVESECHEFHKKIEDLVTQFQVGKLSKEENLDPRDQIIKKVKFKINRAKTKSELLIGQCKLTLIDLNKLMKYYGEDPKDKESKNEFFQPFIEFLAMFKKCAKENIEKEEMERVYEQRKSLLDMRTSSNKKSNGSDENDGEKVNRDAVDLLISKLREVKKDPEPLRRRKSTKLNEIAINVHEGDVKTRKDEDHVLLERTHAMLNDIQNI

In the case of Bud14 (from UniProt P27637), the Kd is 0.015 µM.
